{"source": "patent US20060165683A1", "about": "“Methods and compositions for control of bone formation via modulation of sympathetic tone” (priority 2001, published 2006)", "molecules": {"B1": {"name": "leptin: polypeptide hormone, product of the ob gene; human leptin (Sigma) infused ICV (protein)", "chain": "VPIQKVQDDTKTLIKTIVTRINDISHTQSVSAKQRVTGLDFIPGLHPILSLSKMDQTLAVYQQVLTSLPSQNVLQIANDLENLRDLLHLLAFSKSCSLPQTSGLQKPESLDGVLEASLYSTEVVALSRLQGSLQDILQQLDVSPEC"}}, "key": {"[1]": {"test_system": "primary osteoblasts isolated from wild-type mice", "experiment": "Leptin signaling in primary osteoblast cultures (Stat3 phosphorylation, immediate early genes, matrix synthesis and mineralization)", "type": "cell-based, mouse", "experimental": "Expression of leptin in osteoblasts was studied in subconfluent primary osteoblast cultures from wild-type mice which were maintained for 4 days in 10% FBS mineralization medium and then subsequently switched to 0.5% for 2 days and replaced daily. Medium was replaced 2 hours before a 20 min treatment with 80 ng/mL leptin (Sigma) or 40 ng/mL Oncostatin M (R&D Diagnostics) or vehicle. RNA extractions were performed using Triazol (Gibco). Northern blots were performed with 15 μg of total RNA according to methods well known in the art.\nTo determine whether or not leptin could transduce its signal in osteoblasts, serum-starved primary osteoblasts isolated from wild-type mice were treated with leptin. Primary osteoblast cultures from calvaria of newborn wild-type or db/db mice were established as previously described (Ducy et al., 1999, Genes Dev 13, 1025-1036) and maintained in mineralization medium (αMEMI 0.1 mg/mL ascorbic acid; 5 mM […]) supplemented with 10% […]. Cultures of mutant cells were maintained in this medium for 15 days before analysis. Cultures derived from wild-type mice were maintained for 10 days in this medium then the percentage of serum was reduced to 0.5% and the medium supplemented with 1.2 μg/mL leptin (Sigma) or vehicle for 5 days.\nThe phosphorylation of Stat3, a downstream effector of leptin signaling in its target cells (Tartaglia et al., 1995, Cell 83, 1263-1271; Baumann et al., 1996, Proc Natl Acad Sci USA 93, 8374-8378; Ghilardi et al., 1996, Proc Natl Acad Sci USA 93, 6231-6235; Vaisse et al., 1996, Nat Genet 14, 95-97), was monitored, in addition to the expression of two immediate early genes whose transcription is increased following leptin treatment of target cells (Elmquist et al., 1997, Endocrinology 138, 839-842). As a positive control oncostatin-M that induces Stat3 phosphorylation and activates the expression of the same two immediate early genes in osteoblasts (Levy et al., 1996, Endocrinology 137, 1159-1165) was utilized. Western blot analysis was performed to determine Stat3 phosphorylation as follows. Cells were lysed, protein extracts were separated on a 7.5% SDS-PAGE and blotted on nitrocellulose (Biorad) for immunoblotting assay by methods well known in the art. Analysis of Stat3 phosphorylation was performed using the PhosphoPlus Stat3 (Tyr7O5) Antibody kit (New England Biolabs) according to the manufacturer's instructions.\nFinally, the effect of a long-term leptin treatment of primary osteoblast cultures from wild-type mice on extracellular matrix synthesis and bone matrix mineralization was determined. The presence of a collagen-rich extracellular matrix and of mineralization nodules was assessed by whole-mount staining of the cultures by the van Gieson and von Kossa reagent, respectively. No difference was observed when assessing collagen synthesis or mineralization nodule formation between control and leptin-treated cultures (FIG. 5E)."}, "[2]": {"test_system": "ob/ob mice", "experiment": "Intracerebroventricular infusion of leptin in ob/ob mice", "type": "in vivo, mouse", "experimental": "Lastly, the issue of whether leptin binding to its hypothalamic receptor could correct the high bone mass phenotype of the ob/ob mice as it can rescue their obesity phenotype was addressed. To that end pumps delivering either PBS or leptin (8 ng/hr) in the third ventricle of ob/ob mice were inserted as follows. Animals were anesthetized with avertin and placed on a stereotaxic instrument (Stoelting). The Calabria was exposed and a 0.7 mm hole was drilled upon bregma. A 28-gauge cannula (Brain infusion kit U, Alza) was implanted into the third ventricle according to the following coordinates: midline, −0.3 AP, 3 mm ventral (0 point bregma). The cannula was secured to the skull with cyanoacrylate, and attached with Tygon tubing to an osmotic pump (Alza) placed in the dorsal subcutaneous space of the animal. The rate of delivery was 0.25 μl/hour (8 ng/hr of leptin (Sigma)) or PBS for 28 days. The dosage has been previously shown to have no effect when administered systemically (Halaas et al., 1997, Proc Nati Acad Sci USA 94:8878-8883). To be as close as possible to the biological situation of the ob/ob mice, the animals in which pumps were inserted were ovariectomized to avoid any artificial increase in bone mass due to the correction of their hypogonadism. The pumps were left in place for 28 days and double-labeling with calcein was performed to measure the bone formation parameters."}, "[3]": {"test_system": "wildtype mice", "experiment": "Central (ICV) infusion of leptin in wildtype mice", "type": "in vivo, mouse", "experimental": "Wildtype (C57BL/6J) and mutant (C57BL/6J A^y/a, C57BL/6J ob/ob) mice were obtained from the Jackson laboratory and adrenal medullectomized mice from Harlan Tecklad laboratory. Dbh−/− mice were rescued as previously described (Thomas et al., 1998, Neurochem 70:2468-2476). Isoproterenol (Sigma) was injected intraperitoneally (ip) once daily for 6 weeks at 30 mg/kg (wt) or 3 mg/kg (ob/ob). Propranolol (Sigma) was added to the drinking water at a concentration of 0.5 g/l. For ICV infusion, a 28-gauge cannula (Brain infusion kit II, Alza) was implanted into the third ventricle as previously described infusing human leptin (Sigma) at 8 ng/hr or MT-II at 125 ng/hr (Phoenix Pharmaceuticals) for 28 days (see, e.g., Ducy et al., 2000, Cell 100: 197-207). The cannula was connected to an osmotic pump (Alza) placed in the dorsal subcutaneous space of the animal. For parabiosis longitudinal incisions were made in the skin and in the peritoneal cavity along one side on each mouse. Edges of the incisions were connected by suture to induce coelioanastomosis. Cross-circulation was quantified by injecting 1 ml/kg 0.25% Evans blue into the tail vein of one mouse of the parabiosed pair. After 30 min. blood was collected from both mice by retroorbital bleeding and the blood exchange rate was calculated according to standard techniques (see, e.g., Harris & Martin, 1984, Am J Physiol 247:R380-386). […]"}, "[4]": {"conditions": "ob/ob mice, ICV 8 ng/hr, 28 days"}}, "data": [{"molecule": "B1", "values": [{"measurement": "collagen synthesis or mineralization nodule formation vs control cultures", "setting": "[1]; long-term treatment, 1.2 μg/mL leptin for 5 days, 0.5% serum", "result": "No difference"}, {"measurement": "expression of Tis11 and c-fos (Northern analysis)", "setting": "[1]; primary osteoblasts, 20 min treatment", "result": "not"}, {"measurement": "Stat3 phosphorylation (Western blot)", "setting": "[1]; serum-starved primary osteoblasts, 20 min, leptin 80 ng/mL, Oncostatin M 40 ng/mL", "result": "did not"}, {"measurement": "leptin in the serum (radioimmunoassay)", "setting": "[2]; ob/ob mice after ICV infusion", "result": "No leptin in the serum of these animals was detected"}, {"measurement": "Bone Volume", "setting": "[2]; [4]", "result": "significantly decreased"}, {"measurement": "bone formation rates", "setting": "[2]; [4]", "result": "significantly decreased"}, {"measurement": "trabeculae thickness", "setting": "[2]; [4]", "result": "significantly decreased"}, {"measurement": "bone appearance (classical histology)", "setting": "[2]; ovariectomized ob/ob mice, third ventricle, 8 ng/hr, 28 days, vs PBS", "result": "regained a normal appearance"}, {"measurement": "bone mass / bone volume and bone formation parameters", "setting": "[3]", "result": "decreased"}]}]}
